Data: patent US7666446B2, “Oral formulation for delivery of poorly absorbed drugs” (ProCarrier, Inc., priority 2004, dated 2010)

Experiments:
[1] = rat, in vivo
Experimental: To determine absorption from the intestine, male Sprague Dawley rats weighing 250-300 g with free access to water were fasted for about 18 h prior to experiments. These rats were anesthetized and maintained with Ketamine/Xylazine (([…])/(80 mg/kg)) by intraperitoneal injection. The small intestine was exposed by a midline abdominal incision. A small incision was made in the stomach to insert a polyethylene tube (i.d. 0.76 mm, o.d. 1.22 mm, Clay Adams), toward the middle duodenum, which was closed at the exposed end by a stopcock to prevent drainage of drug solution from the duodenum. Blood samples were taken with a heparinized syringe through the jugular vein catheter at predetermined time intervals. After collecting, samples were coagulated for about 90 min and then were centrifuged for 10 min at 6000 rpm. The supernatant was removed and stored at −20° C. Samples were analyzed for hGH protein levels with a Human Growth Hormone ELISA Kit (coated plate, ICN Diagnostics) according to the manufacturer's protocol.
For the controls, either glucosamine 40 mg/kg plus sucrose laurate 40 mg/kg (i.e., 100 units of carrier) or 10 mg/kg of rhGH (Advanced Protein Technologies Inc., Suwon, Korea) were administered per intraduodenum. […] To evaluate the effect of varying the amount of carrier administered, the amount of rhGH was held at 3 mg/kg rhGH and the Tmax was measured. […] In the case of intraduodenal administration, the controls were fixed at 10 units of carrier. The amount of rhGH was varied to include 1, 3, and 10 mg/kg of rhGH.
Finally, to evaluate the effectiveness of the carrier itself, the type of carrier was varied while maintaining the same level of rhGH (3 mg/kg).

[2] = Decomposition test: rhGH concentration by ELISA after shaking; format: physicochemical
Experimental: A solution of rhGH (5 ng/mL) was prepared in 20 mM phosphate buffer. The phosphate buffer was prepared in triple-distilled, filtered water (0.22 μm filter), and its pH was adjusted to pH 7.4 with sodium hydroxide solution. Solutions of rhGH were shaken for 1 min at high speed with a vortex mixer (Scientific Industries Inc.). After shaking, samples were equilibrated for specific time intervals at room temperature. Concentrations of rhGH were then determined by ELISA according to methods well known in the art.

[3] = Intraduodenal absorption of rhGH/PEP solutions, rhGH by ELISA (Example 3); format: in vivo, male Sprague-Dawley rats; settings: rats, rhGH administered without PEP solution
Experimental: RhGH solutions containing a promoter (glucosamine or poly-L-lysine), an enhancer (sucrose laurate 16), and a protector (methylcellulose) were prepared in water according to the proportions set out in Table 2.
The abdominal muscle was sutured under the skin. […] Four rats were in each treatment group. […]

Q: For rhGH: recombinant human growth hormone, which Tmax ([1]; 3 mg/kg) is on record?
A: less than 20 min

Q: And the “absorption of rhGH” value ([1]; 3 mg/kg)?
A: increased absorption

Q: What about the bioavailability ([1]; 3 mg/kg) of the same substance?
A: 7.1%

Q: What about the “peak serum rhGH concentration” value ([1]; sc, 0.1 mg/kg) of the same substance?
A: 73 ng/mL

Q: What about the “Concentration rhGH” value ([2]; 0 min, 5 ng/mL rhGH, phosphate buffer pH 7.4) of the same substance?
A: 5 ng/mL

Q: What about the “Concentration rhGH” value ([2]; 1 min after shaking, room temperature) of the same substance?
A: 1.05 ng/mL

Q: And the “Concentration rhGH” value ([2]; 30 min after shaking, room temperature)?
A: 0.65 ng/mL

Q: What about the “Concentration rhGH” value ([2]; 60 min after shaking, room temperature) of the same substance?
A: 0.43 ng/mL

Q: And the “Concentration rhGH” value ([2]; 90 min after shaking, room temperature)?
A: 0.40 ng/mL

Q: And the rhGH in serum [3]?
A: not detected
